Results from paper PMC8041823, “Structural comparison of Acinetobacter baumannii β-ketoacyl-acyl carrier protein reductases in fatty acid and aryl polyene biosynthesis” (Scientific Reports, 2021).

How the values were obtained:
[1] = biological target: Acinetobacter baumannii ApeQ (β-ketoacyl-ACP reductase of the aryl polyene biosynthesis gene cluster) (Acinetobacter baumannii (clinical CRAB strain C1)); experiment: crystal structure; apo AbApeQ, space group P3_(1)2, four molecules in the asymmetric unit
[2] = biological target: Acinetobacter baumannii ApeQ (β-ketoacyl-ACP reductase of the aryl polyene biosynthesis gene cluster) (Acinetobacter baumannii (clinical CRAB strain C1)); experiment: crystal structure; AbApeQ co-crystallised with NADPH (1:3 molar ratio), space group P2_(1), four molecules in the asymmetric unit
[3] = biological target: Acinetobacter baumannii FabG (β-ketoacyl-ACP reductase of the fatty acid synthase gene cluster) (Acinetobacter baumannii (clinical CRAB strain C1)) (UniProt V5VHN7); experiment: crystal structure; apo AbFabG, 1.79 Å, four molecules in the asymmetric unit

Substance	stoichiometry N [1]	stoichiometry N [2]	stoichiometry N [3]
Acinetobacter baumannii ApeQ (β-ketoacyl-ACP reductase of the aryl polyene biosynthesis gene cluster) (enzyme)	4	4	–
Acinetobacter baumannii FabG (β-ketoacyl-ACP reductase of the fatty acid synthase gene cluster) (from UniProt V5VHN7 1-244) (enzyme)	–	–	4
